Data taken from publication PMC7039556.

Tests used:
[1] = biological target: isolated human low-density lipoprotein (LDL) particles; assay: density gradient ultracentrifugation of PCSK9-LDL binding reactions, Western blot densitometry; details: conditioned cell culture medium incubated with LDL; n = 4; read off a plot
[2] = biological target: isolated human low-density lipoprotein (LDL) particles (human (endogenous in plasma)); assay: co-sedimentation; Optiprep density gradient ultracentrifugation: 1 μg PCSK9 (concentrated conditioned medium) with 500 μg isolated human LDL in 1.0 ml HBS-C (25 mM HEPES-KOH pH 7.4, 150 mM NaCl, 2 mM CaCl2), 0.5% BSA, 37 °C 1 h; LDL fraction immunoprecipitated with anti-PCSK9 serum, PCSK9 quantified by Western blot and normalised to WT

| ratio to parent [1] | Substance | further results |
| --- | --- | --- |
| 1 | FLAG epitope-tagged recombinant human WT PCSK9 (proprotein convertase subtilisin/kexin type-9) (from UniProt Q8NBP7) Y38F | – |
| 0.92 | FLAG epitope-tagged recombinant human WT PCSK9 (proprotein convertase subtilisin/kexin type-9) (from UniProt Q8NBP7) Y38L | – |
| – | R469W and F515L substitutions (PCSK9) | percent decrease of LDL binding against WT PCSK9 [2]: 60 to 70% |
| – | human PCSK9 with the hydrophobic stretch (aa 41–45) and Arg-46 replaced by a glycine-serine linker (from UniProt Q8NBP7 31-152; Q8NBP7 153-692) (natural protein) | percent reduction of LDL binding against WT PCSK9 [2]: > 60% |
